# Results from article PMC12963305.
# Target: EmER1, EGF receptor of Echinococcus multilocularis, extracellular region in the MALAR-Y2H receptor vector (Echinococcus multilocularis)
substance,measurement,value
"human EGF, extracellular domain in the MALAR-Y2H ligand vector (from UniProt P01133 23-1032)","germinal vesicle breakdown (GVBD) of Xenopus oocytes expressing EmER1 from cRNA, stimulated by 50 nM recombinant human EGF, counted after 15 h",30%
